{"source": "the nanobody polyreactivity screen of Harvey et al. (2022)", "data": [{"test": "yeast display, Sf9 membrane polyspecificity reagent, FACS + sequencing; frameworks hold sequencing errors", "how_it_was_run": "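Polyreactivity labels are assigned by the sorting gate from which each nanobody was recovered. The gates were low and high (top ~1%), set on anti-HA fluorescence for expression and streptavidin fluorescence for reagent binding. Before sorting, galactose-induced (36–48 hours) yeast display cells were stained for 1 hour at 4 °C with 10% biotinylated, detergent-solubilized Sf9 membrane reagent.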", "values": [{"sequence": "QVQLVESGGGLVQAGGSLRLSCAASGSIFKSYAMGWYRQAPGKERELVAAISWSGTSTYYADSVKGRFTISRDNAKNTVYLQMNSLKPEDTAVYDCAASGDYGEYGYWGQGTQVTVSS", "polyreactivity (PSR sort gate)": "low polyreactivity"}, {"sequence": "QVQLVESGGGLVQAGGSLRLSCAASGSIFKSYAMGWYRQAPGKERELVAAITWRSGRTYYADSVKGRFTISRDNAKNTVYLQMTSLKPEDTAVYYCAADDTSYYIYSYDYWGQGTQVTVSS", "polyreactivity (PSR sort gate)": "low polyreactivity"}, {"sequence": "QVQLVESGGGLVQAGGSLRLSCAASGSIFKTYAMGWYRQAPGKERELVAAISWRGGSTYYADSVKGRFTISRDNAKNTVYLEMNSLKPEDTAVYYCAAGRKFGTRTLWYRYGYWGQGTQVTVSS", "polyreactivity (PSR sort gate)": "high polyreactivity"}, {"sequence": "QVQLVESGGGLVQAGGSLRLSCAASGSIFKVNAMGWYRQAPGKEWELVARTYYADSVKGRFTISRDNAKNTVYLQMNSLKPEDTAVYYCAASRGIYNPYDYWGQGTQVTVSS", "polyreactivity (PSR sort gate)": "low polyreactivity"}, {"sequence": "QVQLVESGGGLVQAGGSLRLSCAASGSIFKVYAMGWYRQAPGKERELVATISGSGGSTYYADSVKGRFTISRDNAKNTVYLQMNSLKPEDTAVYYCAAEVYVPDYFQHKFDVEYEYWGQGTQVTVSS", "polyreactivity (PSR sort gate)": "low polyreactivity"}, {"sequence": "QVQLVESGGGLVQAGGSLRLSCAASGSIFKWNAMGWYRQAPGKEWELVAAITWSGGRTYYADSVKGRFTISRDNAKNTVYLQMNSLKPEDTAVYYCAATQYRSDGWRYDYWGQGTQVTVSS", "polyreactivity (PSR sort gate)": "high polyreactivity"}, {"sequence": "QVQLVESGGGLVQAGGSLRLSCAASGSIFKWYTMGWYRQAPGKERELVAAITWGGGSTYYADSVKGRFTISRDNAKNTVYLQMNSLKPEDTAVYYCNAEYVVADYGYYTIEFDYWGQGTQVTVSS", "polyreactivity (PSR sort gate)": "low polyreactivity"}, {"sequence": "QVQLVESGGGLVQAGGSLRLSCAASGSIFKYNDMGWYRQAPGKERELVAAIRLGGGSTSYADSVKGRFTISRDNAKNTVYLQMNSLKPEDTAVYYCAAEINVGWLGSYDYWGQGTQVTVSS", "polyreactivity (PSR sort gate)": "low polyreactivity"}, {"sequence": "QVQLVESGGGLVQAGGSLRLSCAASGSIFKYYAMGWYRQAPGKERELVAAISRSGTSTYYADSVKGRFTISRDNAKNTVYLQMNSLKPEDTAVYYCNAVGISQFAKYGWRYDYWGQGTQVTVSS", "polyreactivity (PSR sort gate)": "high polyreactivity"}, {"sequence": "QVQLVESGGGLVQAGGSLRLSCAASGSIFKYYAMGWYRQAPGKERELVAAISSGGITNYADSVKGRFTISRDNAKNTVYLQMNSLKPEDTAVYYCAARDYVRLGLYDYDYWGQGTQVTVSS", "polyreactivity (PSR sort gate)": "low polyreactivity"}, {"sequence": "QVQLVESGGGLVQAGGSLRLSCAASGSIFKYYAMGWYRQAPGKERELVAAISSSGGSTYYADSVKWRFTISRDNAKNTVYLQMNSLKPEDTAVYYCNTPYIWKNYDYWGQGTQVTVSS", "polyreactivity (PSR sort gate)": "high polyreactivity"}, {"sequence": "QVQLVESGGGLVQAGGSLRLSCAASGSIFKYYAMGWYRQAPGKERELVAAITSGVSTYADSVKGPFTISRDNAKNTVYLQMNSLKPEDTAVYYCAVRVTGPRGDYWGQGTQVTVSS", "polyreactivity (PSR sort gate)": "low polyreactivity"}, {"sequence": "QVQLVESGGGLVQAGGSLRLSCAASGSIFKYYAMGWYRQAPGKERELVAAITWSGTRTYYADSVKGRFTISRDNAKNTVYLQMNSLKPEDTAVYYCNAPRYLYSAGRFNYWGQGTQVTVSS", "polyreactivity (PSR sort gate)": "high polyreactivity"}, {"sequence": "QVQLVESGGGLVQAGGSLRLSCAASGSIFKYYTMGWYRQAPGKERELVASINGGGSTNYADSVKGRFTISRDNAKNTVYLQMNSLKPEDTAVYYCNARYWWQDGYWGQGTQVTVSS", "polyreactivity (PSR sort gate)": "high polyreactivity"}, {"sequence": "QVQLVESGGGLVQAGGSLRLSCAASGSIFKYYVMGWYRQAPGKEREFVAVISWSGGTTYYADSVKGRFTISRDNAKNTVYLQMNSLKPEDTAVYDCNKDYIYVGVPRYRSINHDYWGQGTQVTVSS", "polyreactivity (PSR sort gate)": "low polyreactivity"}, {"sequence": "QVQLVESGGGLVQAGGSLRLSCAASGSIFKYYVMGWYRQAPGKERELVAAITRGGRTYYADSVKGRFTISRDNAKNTVYLQMNSLKPEDTAVYYCARSLQTTSGIIPYDYWGQGTQVTVSS", "polyreactivity (PSR sort gate)": "high polyreactivity"}, {"sequence": "QVQLVESGGGLVQAGGSLRLSCAASGSIFLDNAMGWYRQAPGKERELVAAISRRGGTTYYADSVKGRFTISRDNAKNTVYLQMNSLKPEDTAVYYCAARYPGGKYYSYTYNYWGQGTQVTVSS", "polyreactivity (PSR sort gate)": "high polyreactivity"}, {"sequence": "QVQLVESGGGLVQAGGSLRLSCAASGSIFLDYAMGWYRQAPGKERELVAAITSGGSTYYADSVKGRFTISRDNAKNTVYLQMNSLKPEDTAVYYCNDEYPQYKAGFYGYDYWGQGTQVTVSS", "polyreactivity (PSR sort gate)": "low polyreactivity"}, {"sequence": "QVQLVESGGGLVQAGGSLRLSCAASGSIFLDYAMGWYRQAPGKERELVAGITISGGSTYYADSVKGRFTISRDNAKNTVYLQMNSLKPEDTAVYYCAKVAPRSSSSQEYYYWGQGTQVTVSS", "polyreactivity (PSR sort gate)": "low polyreactivity"}, {"sequence": "QVQLVESGGGLVQAGGSLRLSCAASGSIFLENTMGWYRQAPGKERELVAAITSSGDSTYADSVKGRFTISRDNAKNTVYLQMNSLKPEDTAVYYCAQYTRDIFAVTFYEGEDYWGQGTQVTVSS", "polyreactivity (PSR sort gate)": "low polyreactivity"}, {"sequence": "QVQLVESGGGLVQAGGSLRLSCAASGSIFLEYTMGWYRQAPGKERELVASISWGGGSTYYADSVKGRFTISRDNAKNTVFLQMNSLKPEDTAVYYCNKVGGDPVRGGYDYWGQGTQVTVSS", "polyreactivity (PSR sort gate)": "low polyreactivity"}, {"sequence": "QVQLVESGGGLVQAGGSLRLSCAASGSIFLGNSMGWYRQAPGKERELVAAISSITGRTYYADSVKGRFTISRDNAKNTVYLQMNSLKPEDTAVYYCNKVKRSFIVNTDDYWGQGTQVTVSS", "polyreactivity (PSR sort gate)": "high polyreactivity"}, {"sequence": "QVQLVESGGGLVQAGGSLRLSCAASGSIFLIYAMGWYRQAPGKERELVAAISSGGSTYYADSVKGRFTISRDNAKNTVYLQINSLKPEDTAVYYCATYSTSVAYHLYYWGQGTQVTVSS", "polyreactivity (PSR sort gate)": "low polyreactivity"}, {"sequence": "QVQLVESGGGLVQAGGSLRLSCAASGSIFLLYAMGWYRQAPGKERELVARISWSGDNTRYADSVKGRFTISPDNAKNTVYLQMNSLKPEDTAVYYCNAYFFYGQWKGYDYWGQGTQVTVSS", "polyreactivity (PSR sort gate)": "low polyreactivity"}, {"sequence": "QVQLVESGGGLVQAGGSLRLSCAASGSIFLLYYMGWYRQAPGKERELVAANTWSGGSTYYADSVKGRFTISRDNAKNSVYLQMNSLKPEDTAVYYFAADEPYPTAYEYWGQGTQVTLSS", "polyreactivity (PSR sort gate)": "low polyreactivity"}, {"sequence": "QVQLVESGGGLVQAGGSLRLSCAASGSIFLPYAMGWSRQAPGTEREFVAAIRWSTGRTFYADSVKGRFTISRDNAKNTVYLQMNSLKPEDTAVYYCAAKYYDSWYTYRYDYWGQGTQVTVSS", "polyreactivity (PSR sort gate)": "high polyreactivity"}, {"sequence": "QVQLVESGGGLVQAGGSLRLSCAASGSIFLRNAMGWYRQAPGKERELVAAITSNGGRTYYADSVKGRFTISRDNAKNTVYLQMNSLKPEDTAVYYCARVTRLGGGDYDYWGQGTQVTVSS", "polyreactivity (PSR sort gate)": "high polyreactivity"}, {"sequence": "QVQLVESGGGLVQAGGSLRLSCAASGSIFLRYAMGWYRQAPGKESELVARISWSGGSTYYADSVKGRFTISRDNAKNTVYLQMNSLKPEDTAVYYCAAGFRAYGELDYWGQGTQVTVSS", "polyreactivity (PSR sort gate)": "low polyreactivity"}, {"sequence": "QVQLVESGGGLVQAGGSLRLSCAASGSIFLSNAMGWSRQAPGKERELVADIDWTGGDTYYADSVKGRFTISRDNAKNTVYLQMNSLKPEDTAVYYCAADYGYRNLLTEYGYWGQGTQVTVSS", "polyreactivity (PSR sort gate)": "low polyreactivity"}, {"sequence": "QVQLVESGGGLVQAGGSLRLSCAASGSIFLSYAMGWYRQAPGKERELVAAITGSGGSTYYADSVKGRFTISRDNAKNTVYLQMNSLKPEDTAVYYCARRRHHVIWYGYWGQGTQVTVSS", "polyreactivity (PSR sort gate)": "low polyreactivity"}, {"sequence": "QVQLVESGGGLVQAGGSLRLSCAASGSIFLSYGMGRYRQAPGKERELVATITWSGGSTTYADSVKGRFTISRDNAKNTVYLQMNSLKPEDTAVYYCIALYDVWITLLTYTSSDYWGQGTQVTVSS", "polyreactivity (PSR sort gate)": "low polyreactivity"}, {"sequence": "QVQLVESGGGLVQAGGSLRLSCAASGSIFLTYAMGWYRKAPGKERELVAAISGGGNTYYADSVKGRFTISRDNAKNTVYLQKNSLKPEDTAVYYCNAVPHIYAEGTAYNYWGQGTQVTVSS", "polyreactivity (PSR sort gate)": "low polyreactivity"}, {"sequence": "QVQLVESGGGLVQAGGSLRLSCAASGSIFLTYDMGWYRQAPGKERELVAAITGSGDSTYYADSVKGRFTISRDNAKNTVYLQMNSLKPEDNAVYYCNADGPSTPWVDYGYWGQGTQVTVSS", "polyreactivity (PSR sort gate)": "low polyreactivity"}, {"sequence": "QVQLVESGGGLVQAGGSLRLSCAASGSIFLVNAMGWYRQAPGKERELVAAISWGGGSTYYADSVKGRFTISRDNAKNTVYVQMNSLKPEDTAVYYCAAESYYYIRYFDYSRWMGYWGQGTQVTVSS", "polyreactivity (PSR sort gate)": "low polyreactivity"}, {"sequence": "QVQLVESGGGLVQAGGSLRLSCAASGSIFLVNAMGWYRQAPGKERELVAIDGSGGSTYADSVKGRFTISRDNAMNTVYLQMNILKPEDTAVYYCAKDQEGPLYDYWGQGTQVTVSS", "polyreactivity (PSR sort gate)": "low polyreactivity"}, {"sequence": "QVQLVESGGGLVQAGGSLRLSCAASGSIFLVTAMGWYRQAPGKERELVAAITFGGDSTYYADSVKGRFTISRDNAKNTVYLQMNSLKPEDTAVYYCAADPSPYGDEYDYWGQGTQVTVSS", "polyreactivity (PSR sort gate)": "low polyreactivity"}, {"sequence": "QVQLVESGGGLVQAGGSLRLSCAASGSIFLYARGWYRQAPGKERELVAAINRRGGSTYYADSVKGRFTISRDNAKNTVYLQMNSLKPEDTAVYYCAVVYLLPRYWWRYDYWGQGTQVTVSS", "polyreactivity (PSR sort gate)": "low polyreactivity"}, {"sequence": "QVQLVESGGGLVQAGGSLRLSCAASGSIFLYKAMGWYRQAPGKERELVADITSRGGSTYYADSVKGRFTISRDNAKNTVYLQMTSLKPEDTAVYDCNAVSRYVYGNGKNYYWGQGTHVTVSS", "polyreactivity (PSR sort gate)": "high polyreactivity"}, {"sequence": "QVQLVESGGGLVQAGGSLRLSCAASGSIFLYNAMGWYRQAPGKERELVAAIRGSDGITFYADSVKGRFTISRDNAKNTVYLQMNSLKPEDTAVYYCAKDTYRSPRHDYGYWGQGTQVTVSS", "polyreactivity (PSR sort gate)": "low polyreactivity"}, {"sequence": "QVQLVESGGGLVQAGGSLRLSCAASGSIFLYNAMGWYRQAPGKERELVAAISRSSTSTYYSDSVKGRFTISRDNAKNTVYLQMNSLKPEDTAVYYCAARGRVTYWGQGTQVTVSS", "polyreactivity (PSR sort gate)": "high polyreactivity"}, {"sequence": "QVQLVESGGGLVQAGGSLRLSCAASGSIFLYYVMGWYRQAPGKERELVAAITWDGGSTYYADSVKGRFTISRDNAKNTVYLQMNSLKPEDTAVYYCNKDTTYSYYTEPYDYWGQGTQVTVSS", "polyreactivity (PSR sort gate)": "low polyreactivity"}]}]}
